# Assay results taken from the DeepSol protein solubility set.
# Experiment: soluble on expression in E. coli; label from the status in PepcDB or PDB records
row,Sequence,soluble on expression in E. coli
1,MSLNAQNAGINFLHGTTWAEAVAKAKAENKLIFIDFYTQWCGPCMNMAQTVFSLPTVGYYYNQTFINLKIDAEEGEGITLAKKYGVRSYPTYAFVDPATEEIVHRSSSRQTPEQFIQTGKDANIPTKRSFYLQEQYTKGNRERAFLIDYINYHYSVYARNNVQAAFDELIKGGAKLTDPDVWEVYVNTINGMNPYLKQVSDNYADFCQRFGKKAVDAKLAKETSYGELAEIEALCNYEGKDFNLKMIRINNDIREQKYEAAATQIDAMIADTTVNQQELISRLKFIARLGYKAEELPEFWFNKCVGYLQYIAYNQTDRDDAFIHQEYAAALEMVLRKLNGKAPIPACLSTEPAYGKKVYNMRPDALKMKPKREGHHHHHH,soluble
2,MSRSRQPPLVTGISPNEGIPWTKVTIRGENLGTGPTDLIGLTICGHNCLLTAEWMSASKIVCRVGQAKNDKGDIIVTTKSGGRGTSTVSFKLLKPEKIG,soluble
3,AIASIPFSNTHYRIPQGFGNLLEGLTREILREQPDNIPAFAAAYFESLLEKREKTNFDPAEWGSKVEDRFYNNHAFEEQEPPEKSDPKQEESQISGKEEETSVTILDSSEEDKEKEEVAAVKIQAAFRGHIAREEAKKMKTNSLQNEEKEENK,soluble
4,GTPLSSDEKIRVLVWNIFKQQRAEWQSVLKNFGKDAHLVLLQEAQTTPELVRFATSNYLAADQVPALVLPQHPSGVMTLASAHPIYCCPLREREPILRLPKSALVTVYPLPDARLLMVVNIHAVNFSLGVDVYSKQLLPIGDQIAHHSGPVIMAGDFNAWSRPRMNALYRFAREMSLREVRFSDDQRRRAFGRPLDFVFYRGLSVHDASVLVTRASDHNPLLVEFSPGKP,not soluble
5,MSLDNPNSSIFADLLAKASELENIIVTLQHKIQGGYYFLNDIEIISEDDARNFDVELVRLKGICNHMQRYNTKAKMRNIDWPIDVVKTAMTETRSKVFETLDLMKELDGFRDLVSYLRIALSNVNDNDLKTEIISSIDGIKEVINKGKQARDAYKLKLEALKDRYATWYMEAYLKAHISEIDHGKKSAVMLSTEKQLCDIIKNASFINPSRYDNWLRKMNLLKVVNSSVNKNAILSVPTSVDGFNPSMQKDELPELEDLKDELKEIYAEYEQGFHDALEDPTILRNKEMLTQEERSTIQQFIDGNITLNPQYARILIDIINKLQRSFTKVEINHNEMLKIFSRPMTKQQALDALAAYIDNHSRGHKPEDIRIIVKEGHHHHHH,soluble
6,MSLSKLDIPLSIMQKSVVIRPGGRQEMDEHVAIETPYAIALNDRVIGSSMVLPVDLEEFGAGFLFGQGYIKKAEEIREILVCPQGRISVYADVENEEPREVIITSGCGGTGKIPKEMLEGEFAPLADYCLPFAEIKSFIREALHSSPLGPQTHCVHGCGLWNNGRLQVYHEDVGRHNAVDKVLGSILLGRASNNSAVYTTGRLTSDMVLKCARIGIPIIMSRTSPSSLGLALAKRSGATLVAYSRPERINVFNAPERILTEGHHHHHH,soluble
7,MVKKAAATSKQATYHSDEIEMKEEVVLNTYDECTDYVEYDDTKQFDINEYCDQIQVAMVNESDDGMTLEFDITRIEAPIANALRRVLIAEVPTMALEKIYLYQNTSVIQDEVLCHRLGLLPLRVDPRGFQFPKEKVVGINEKGVDCDEEPEGDPAKNLIFKINVSCTKNRNAVPTATDPKQLYHNSSVYSRAFEWVPIADQKTQFTEEAHPRMVSDDILVAKLRPGQEIEASCHAVKGIGRDHAKFSPVATASYRLLPTIRLNAEISGEAAERLKSVFSEGVIAIEKKGAKRIAVVKDARKDTCSRNVFRHEDLSKVVQLGKNKQHFIFSVESTGALKSSELVVEACKVMEIKCRSLRKQIEALIQ,not soluble
8,MFQQQKDWETRENAFAAFTMGPLTDFWRQRDEAEFTGVDDIPVRFVRFRAQHHDRVVVICPGRIESYVKYAELAYDLFHLGFDVLIIDHRGQGRSGRLLADPHLGHVNRFNDYVDDLAAFWQQEVQPGPWRKRYILAHSMGGAISTLFLQRHPGVCDAIALTAPMFGIVIRMPSFMARQILNWAEAHPRFRDGYAIGTGRWRALPFAINVLTHSRQRYRRNLRFYADDPTIRVGGPTYHWVRESILAGEQVLAGAGDDATPTLLLQAEEERVVDNRIHDRFCELRTAAGHPVEGGRPLVIKGAYHEILFEKDAMRSVALHAIVDFFNRHNSPSGNRSTEV,soluble
